In article PMC7835709, “Structural Insight Into the SARS-CoV-2 Nucleocapsid Protein C-Terminal Domain Reveals a Novel Recognition Mechanism for Viral Transcriptional Regulatory Sequences” one finds Kd data, which are given here for eight molecules.

The target in one data set is SARS-CoV-2 N-CTD (SARS-CoV-2, UniProt P0DTC9 250-365). Put plainly: BLI. The note with it: protein: recombinant; tags: 6xHis-SUMO tag removed by Ulp1; chain copies: 2; label: 5' biotin.
The target of data set [1] is T1, SARS-CoV-2 N CTD+IDR (SARS-CoV-2, UniProt P0DTC9 250-419). The data set can be described thus: BLI; BLI (Octet RED96e, SSA sensors, biotinylated RNA immobilised): PBS, 0.02% Tween 20, 25 C; pH not stated; 1:1 kinetic fit. To be noted: protein: recombinant, tags: 6xHis-SUMO tag removed by Ulp1, chain copies: 2.
Data set [2] addresses T2, SARS-CoV-2 N LKR+CTD (SARS-CoV-2, UniProt P0DTC9 183-365). The description is as above. To be noted: protein: recombinant; tags: 6xHis-SUMO tag removed by Ulp1; chain copies: 2; label: 5' biotin.
The target in data set [3] is T1, SARS-CoV-2 N CTD+IDR. Put plainly: BLI; value order as in text ('respectively'); BLI (Octet RED96e, SSA sensors, biotinylated RNA immobilised): PBS, 0.02% Tween 20, 25 C; pH not stated; 1:1 kinetic fit. The note with it: protein: recombinant; tags: 6xHis-SUMO tag removed by Ulp1; chain copies: 2; label: 5' biotin. For orientation: BLI is a label-free optical method that tracks binding on a fibre tip over time.

Data set [4] addresses T2, SARS-CoV-2 N LKR+CTD. The description is as above. To be noted: protein: recombinant; tags: 6xHis-SUMO tag removed by Ulp1; chain copies: 2; label: 5' biotin.

The Kd is the equilibrium constant for the complex coming apart.

On to AAACGAAC (ssRNA) [TRS-2 (RNA2)], for which the results for the Kd with SARS-CoV-2 N-CTD, in the data set with SARS-CoV-2 N CTD+IDR [1] (label: 5' biotin) and in the data set with SARS-CoV-2 N LKR+CTD [2] were 180 µM, 9.1 µM and 17 µM, respectively.

B1: Duplex TRS-2 (RNA2/RNA5) (dsRNA)
RNA 1: AAACGAAC
RNA 2: GUUCGUUU
In the case of B1, in the data set with SARS-CoV-2 N CTD+IDR [1] (blunt, 8 bp), the Kd amounted to 18 µM.

B2: Unpaired Duplex TRS-1 (RNA1/RNA5, TRS1-cTRS2) (dsRNA)
RNA 1: ACGAAC
RNA 2: GUUCGUUU
As to B2, the Kd with SARS-CoV-2 N CTD+IDR [1] (3' overhang 2 nt (UU) on strand 2) is 23 µM.

B3: Duplex TRS-3 (RNA3/RNA6) (dsRNA)
RNA 1: AAACGAACUU
RNA 2: AAGUUCGUUU
With B3, the Kd in the data set with SARS-CoV-2 N CTD+IDR [1] (blunt, 10 bp) turned out to be 11 µM.
As for ACGAAC (ssRNA) [TRS-1 (RNA1)], the Kd in the data set with SARS-CoV-2 N-CTD is 320 µM; with SARS-CoV-2 N CTD+IDR [3], 33 µM; with SARS-CoV-2 N LKR+CTD [4], 14 µM.

B4: Unpaired Duplex TRS-2 (RNA2/RNA4) (dsRNA)
RNA 1: AAACGAAC
RNA 2: GUUCGU
With B4, the Kd in the data set with SARS-CoV-2 N CTD+IDR [1] (5' overhang 2 nt (AA) on strand 1 per Methods) came to 33 µM.

B5: Duplex TRS-1 (RNA1/RNA4) (dsRNA)
RNA 1: ACGAAC
RNA 2: GUUCGU
With B5, the Kd in the data set with SARS-CoV-2 N CTD+IDR [1] (blunt, 6 bp) was 29 µM.
Turning to AAACGAACUU (ssRNA) [TRS-3 (RNA3)], the Kd came to 150 µM with SARS-CoV-2 N-CTD, 5.9 µM with SARS-CoV-2 N CTD+IDR [1] (label: 5' biotin) and 61 µM with SARS-CoV-2 N LKR+CTD [2].
